In US5316935A, “Subtilisin variants suitable for hydrolysis and synthesis in organic media” (California Institute of Technology, priority 1992, dated 1994):

Legend:
Type in all cases: biochemical, Bacillus subtilis
[1] = substrate: C[C@H](NC(=O)CCC(=O)O)C(=O)N[C@@H](C)C(=O)N1CCC[C@H]1C(=O)N[C@@H](Cc1ccccc1)C(=O)Nc1ccc([N+](=O)[O-])cc1; assay: Amidase activity: hydrolysis of p-nitroanilide peptide substrate; settings: other: 0% DMF, 0.1M Tris-HCl, 10 mM CaCl2, pH 8, 37° C.
Method: (§1) The amidase activities of subtilisin and derivatives thereof were measured on the substrate succinyl-Ala-Ala-Pro-Phe-p-nitroanilide (sAAPF-pna) at 37° C. in 0.1M Tris-HCl, pH 8.0 and 10 mM CaCl2. Assays were initiated by mixing the enzyme, the substrate and the reaction buffer. The amount of released p-nitroaniline was measured spectrophotometrically at 410 nm as a function of time. KM and kcat values for hydrolysis of sAAPF-pna by the subtilisin variants were obtained by nonlinear regression of the data using the program Enzfitter (Biosoft).
(§2) For activity measurements in mixed buffer (containing DMF), a portion of the aqueous buffer was replaced by the percentage (w/v) of DMF indicated in Table II. Kinetic constants are reported in Table II for the wild-type enzyme and six variants with 3-10 amino acid substitutions in 20% and 40% DMF.

[2] = substrate: C[C@H](NC(=O)CCC(=O)O)C(=O)N[C@@H](C)C(=O)N1CCC[C@H]1C(=O)N[C@@H](Cc1ccccc1)C(=O)Nc1ccc([N+](=O)[O-])cc1; assay: Amidase activity: hydrolysis of p-nitroanilide peptide substrates; settings: 0.1M Tris-HCl, 10 mM CaCl2, pH 8, 37° C.
Method: as §1, §2
(§3) The effects of different amino acid substitutions at position 103 on amidase activity were investigated. The variants Q103E, Q103K, and Q103S were constructed by PCR site-directed mutagenesis as described in Example VIII. The amidase activities of these variants and the variant Q103R identified by random mutagenesis and screening for enhanced activity in the presence of DMF (Example IV) are compared in Table III. The reactions were carried out in 10% DMF according to the procedures outlined in Examples XI and XII.
The effects of the Q103R amino acid substitution on amidase activity were investigated for two substrates, succinyl-Ala-Ala-Pro-Phe-p-nitroanilide (negatively-charged succinyl group at the peptide N-terminus) and Ala-Ala-Pro-Phe-p-nitroanilide (positively charged N-terminus) in 10% DMF.

[3] = substrate: C[C@H](NC(=O)CCC(=O)O)C(=O)N[C@@H](C)C(=O)N1CCC[C@H]1C(=O)N[C@@H](Cc1ccccc1)C(=O)Nc1ccc([N+](=O)[O-])cc1; assay: Amidase activity: hydrolysis of p-nitroanilide peptide substrate; settings: other: 10% DMF, 0.1M Tris-HCl, 10 mM CaCl2, pH 8, 37° C.
Method: as §1, §2, §3

Protein | Km [1] [µM] | kcat [1] [s⁻¹] | kcat/Km [1] [M^-1 s^-1 × 10^3] | further results
Bacillus subtilis subtilisin E variant 4M (D60N + Q103R + N218S + D97G) (Bacillus subtilis subsp. subtilis str. 168; A256V/D166N/D203G/N324S/Q209R) (protein, each contain 275 residues; made in house; host or cells: Bacillus subtilis DB428 (vector pKWC), secreted into the medium) AQSVPYGISQIKAPALHSQGYTGSNVKVAVIDSGIDSSHPDLNVRGGASFVPSETNPYQNGSSHGTHVAGTIAALNNSIGVLGVAPSASLYAVKVLGSTGSGRYSWIINGIEWAISNNMDVINMSLGGPTGSTALKTVVDKAVSSGIVVVAAAGNEGSSGSTSTVGYPAKYPSTIAVGAVNSSNQRASFSSAGSELDVMAPGVSIQSTLPGGTYGAYSGTSMATPHVAGAAALILSKHPTWTNAQVRDRLESTATYLGNSFYYGKGLINVQAAAQ | 170 | 43 | 249 | 
Bacillus subtilis subtilisin E variant 6M (D60N + Q103R + N218S + D97G + E156G + N181S) (Bacillus subtilis subsp. subtilis str. 168; … (protein) AQSVPYGISQIKAPALHSQGYTGSNVKVAVIDSGIDSSHPDLNVRGGASFVPSETNPYQNGSSHGTHVAGTIAALNNSIGVLGVAPSASLYAVKVLGSTGSGRYSWIINGIEWAISNNMDVINMSLGGPTGSTALKTVVDKAVSSGIVVVAAAGNGGSSGSTSTVGYPAKYPSTIAVGAVSSSNQRASFSSAGSELDVMAPGVSIQSTLPGGTYGAYSGTSMATPHVAGAAALILSKHPTWTNAQVRDRLESTATYLGNSFYYGKGLINVQAAAQ | 40 | 12 | 268 | 
Bacillus subtilis subtilisin E variant 7M (D60N + Q103R + N218S + D97G + E156G + N181S + G131D) (Bacillus subtilis subsp. subtilis str. 168; … (protein) AQSVPYGISQIKAPALHSQGYTGSNVKVAVIDSGIDSSHPDLNVRGGASFVPSETNPYQNGSSHGTHVAGTIAALNNSIGVLGVAPSASLYAVKVLGSTGSGRYSWIINGIEWAISNNMDVINMSLGGPTDSTALKTVVDKAVSSGIVVVAAAGNGGSSGSTSTVGYPAKYPSTIAVGAVSSSNQRASFSSAGSELDVMAPGVSIQSTLPGGTYGAYSGTSMATPHVAGAAALILSKHPTWTNAQVRDRLESTATYLGNSFYYGKGLINVQAAAQ | 30 | 18 | 606 | 
Bacillus subtilis subtilisin E variant Q103R (Bacillus subtilis subsp. subtilis str. 168; A256V/Q209R) (protein, each contain 275 residues; made in house; host or cells: Bacillus subtilis DB428 (vector pKWC), secreted into the medium) AQSVPYGISQIKAPALHSQGYTGSNVKVAVIDSGIDSSHPDLNVRGGASFVPSETNPYQDGSSHGTHVAGTIAALNNSIGVLGVAPSASLYAVKVLDSTGSGRYSWIINGIEWAISNNMDVINMSLGGPTGSTALKTVVDKAVSSGIVVVAAAGNEGSSGSTSTVGYPAKYPSTIAVGAVNSSNQRASFSSAGSELDVMAPGVSIQSTLPGGTYGAYNGTSMATPHVAGAAALILSKHPTWTNAQVRDRLESTATYLGNSFYYGKGLINVQAAAQ |  |  |  | Km ([2]; other: 0% DMF): 250 µM; kcat ([2]; other: 0% DMF): 31 s⁻¹; Km ([2]; other: 10% DMF (Table III)): 1300 µM; kcat ([2]; other: 10% DMF (Table III)): 34 s⁻¹; kcat/Km ([2]; other: 10% DMF (Table III)): 26 M^-1 s^-1 × 10^3
Bacillus subtilis subtilisin E variant Q103S (Bacillus subtilis subsp. subtilis str. 168; A256V/Q209S) (protein, each contain 275 residues; made in house; host or cells: Bacillus subtilis DB428 (vector pKWC), secreted into the medium) AQSVPYGISQIKAPALHSQGYTGSNVKVAVIDSGIDSSHPDLNVRGGASFVPSETNPYQDGSSHGTHVAGTIAALNNSIGVLGVAPSASLYAVKVLDSTGSGSYSWIINGIEWAISNNMDVINMSLGGPTGSTALKTVVDKAVSSGIVVVAAAGNEGSSGSTSTVGYPAKYPSTIAVGAVNSSNQRASFSSAGSELDVMAPGVSIQSTLPGGTYGAYNGTSMATPHVAGAAALILSKHPTWTNAQVRDRLESTATYLGNSFYYGKGLINVQAAAQ |  |  |  | Km [3]: 3000 µM; kcat [3]: 20 s⁻¹; kcat/Km [3]: 7.0 M^-1 s^-1 × 10^3
